# Results: patent US11957698B2, “Synergistic combination of thermolysin and an antibacterial agent to reduce or eliminate bacterial biofilms from surfaces” (SMITH & NEPHEW, INC., priority 2017, dated 2024)
# B1: thermolysin (protein, UniProt P00800 233-548, looked up)
# Thermolysin: ITGTSTVGVGRGVLGDQKNINTTYSTYYYLQDNTRGNGIFTYDAKYRTTLPGSLWADADNQFFASYDAPAVDAHYYAGVTYDYYKNVHNRLSYDGNNAAIRSSVHYSQGYNNAFWNGSQMVYGDGDGQTFIPLSGGIDVVAHELTHAVTDYTAGLIYQNESGAINEAISDIFGTLVEFYANKNPDWEIGEDVYTPGISGDSLRSMSDPAKYGDPDHYSKRYTGTQDNGGVHINSGIINKAAYLISQGGTHYGVSVVGIGRDKLGKIFYRALTQYLTPTSNFSQLRAAAVQSATDLYGSTSQEVASVKQAFDAVGVK
# How the values were obtained:
# Assay type in all cases: cell-based
# S. aureus ATCC 29213 = assay: Minimum inhibitory concentration (MIC) in bacteria suspension; conditions: for MIC values: thermolysin, where present, kept constant at 50 μg/mL
# Protocol: (§1) The concentration of thermolysin in the MIC experiments was kept constant at 50 μg/mL.
# P. aeruginosa ATCC 27312 = assay: as above; conditions: for MIC values: thermolysin, where present, kept constant at 50 μg/mL
# Protocol: as §1
# [1] = system: S. aureus ATCC 6538 bacterial biofilm; assay: In-vitro gram-positive bacterial biofilm study, 96 well plate, crystal violet staining; conditions: concentrations of 0.00001 mg/mL-10 mg/mL, 16 hours, FIG. 1
# Protocol: An in-vitro assay was performed to determine the bacterial biofilm reduction capabilities of thermolysin and collagenase on gram-positive bacterial biofilms. In this assay, S. aureus ATCC 6538 was suspended in a growth media of tryptic soy broth supplemented with 0.25% glucose for optimal bacterial biofilm formation. The suspension was transferred to the wells of sterile 96 well plates and incubated for 22 hours at 37° C. with one change of media. After formation of the bacterial biofilm, the growth media was replaced with solutions of thermolysin dissolved in growth media at various concentrations in some wells and replaced with solutions of collagenase dissolved in growth media at the same concentrations in other wells (enzyme concentrations were 0.000001 mg/mL, 0.00001 mg/mL, 0.0001 mg/mL, 0.001 mg/mL, 0.01 mg/mL, 0.1 mg/mL, 1.0 mg/mL, and 10 mg/mL). After 16 hours, the remaining attached bacteria were quantified by aspirating the enzyme solutions (enzyme+growth media) and washing the plate thoroughly followed by crystal violet staining and recording the absorbance at 570 nm. A growth media control without enzyme was also tested. The crystal violet binds to negative charges on the remaining attached bacteria and the EPS. A decreased absorbance compared to the Control indicates a reduction of attached bacteria meaning a reduction of the bacterial biofilm occurred.
# [2] = system: P. aeruginosa ATCC 15442 bacterial biofilm; assay: In-vitro gram-negative bacterial biofilm study, 96 well plate, crystal violet staining; conditions: 18 hours at 37° C., FIG. 2
# Protocol: An in-vitro assay was performed to determine the bacterial biofilm reduction capabilities of thermolysin and collagenase on gram-negative bacterial biofilms. In this assay P. aeruginosa ATCC 15442 was suspended in a growth media of 10% tryptic soy broth in PBS supplemented with 0.45% glucose (TSBG). The suspension was transferred to the wells of sterile 96 well plates and incubated for 18 hours at 37° C., then the media was changed with fresh media and incubated an additional 8 hours at 37° C. After formation of the bacterial biofilm, the growth media was replaced with solutions of thermolysin dissolved in TSBG growth media at various concentrations in some wells and replaced with solutions of collagenase dissolved in growth media at the same concentrations in other wells (enzyme concentrations were 0.00001 mg/mL, 0.0001 mg/mL, 0.001 mg/mL, 0.01 mg/mL, 0.1 mg/mL, 1.0 mg/mL, and 10 mg/mL). After 18 hours at 37° C., the remaining attached bacteria were quantified by removing the enzyme solutions (enzyme+TSBG growth media) and washing the plate thoroughly followed by crystal violet staining and recording the absorbance at 570 nm. A growth media control without enzyme was also tested. […] A decreased absorbance compared to the Control indicates a reduction of attached bacteria meaning a reduction of the bacterial biofilm occurred.
Molecule,MIC values (S. aureus ATCC 29213; Rep 1),MIC values (S. aureus ATCC 29213; Rep 2),MIC values (P. aeruginosa ATCC 27312; Rep 1),MIC values (P. aeruginosa ATCC 27312; Rep 2),effect in reducing the bacterial biofilm (crystal violet absorbance at 570 nm vs growth media control) [1],effect of the addition of thermolysin on the MIC of gentamicin sulfate (S. aureus ATCC 29213; thermolysin 50 μg/mL),effect of the addition of thermolysin on the MIC of gentamicin sulfate (P. aeruginosa ATCC 27312; thermolysin 50 μg/mL),effect in reducing the bacterial biofilm (crystal violet absorbance at 570 nm vs growth media control) ([2]; concentrations of 0.00001 mg/mL-0.01 mg/mL),effect in reducing the bacterial biofilm (crystal violet absorbance at 570 nm vs growth media control) ([2]; concentrations of 0.1 mg/mL-10 mg/mL)
gentamicin sulfate,1.6 µg/mL,1.6 µg/mL,50 µg/mL,50 µg/mL,–,–,–,–,–
B1,–,–,–,–,had an effect in reducing the bacterial biofilm,did not affect the MIC,did not affect the MIC,little effect,no effect
